Experimental findings from patent publication US20220411483A1 (Chugai, published 2022) are described below.

In one assay the target is T1, FcgRIIaR (human, UniProt P12318 34-217).
T1 construct: extracellular domain; also called FcγRIIa R type; FcγRIIa (R type)
T1 sequence (looked up): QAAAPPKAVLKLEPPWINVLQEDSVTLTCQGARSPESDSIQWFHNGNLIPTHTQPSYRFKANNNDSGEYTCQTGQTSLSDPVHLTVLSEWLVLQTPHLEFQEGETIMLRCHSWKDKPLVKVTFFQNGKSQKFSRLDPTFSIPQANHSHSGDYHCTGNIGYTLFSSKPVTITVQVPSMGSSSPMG
Put plainly: SPR, amount bound per captured antibody. (In general: In SPR one partner is held on a chip, and binding of the other changes the refractive index at the surface.)

The next assay has as its target T2, FcgRIIb (human, UniProt P31994 43-217).
T2 construct: extracellular domain; also called FcγRIIb
T2 sequence (looked up): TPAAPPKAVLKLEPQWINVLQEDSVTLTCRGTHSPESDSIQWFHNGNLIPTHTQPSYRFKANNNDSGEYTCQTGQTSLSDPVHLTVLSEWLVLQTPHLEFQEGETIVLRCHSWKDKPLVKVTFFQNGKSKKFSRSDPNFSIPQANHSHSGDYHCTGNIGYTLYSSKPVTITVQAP
Briefly: SPR, amount bound per captured antibody.

The target in the next assay is T3, human complement C1q (human, UniProt P02745 23-245; P02746 28-253; P02747 29-245).
T3 construct: Bought (PROSPEC or Calbiochem); also called human C1q
T3 sequence (P02745 23-245 limits assumed, chain 1 of 3): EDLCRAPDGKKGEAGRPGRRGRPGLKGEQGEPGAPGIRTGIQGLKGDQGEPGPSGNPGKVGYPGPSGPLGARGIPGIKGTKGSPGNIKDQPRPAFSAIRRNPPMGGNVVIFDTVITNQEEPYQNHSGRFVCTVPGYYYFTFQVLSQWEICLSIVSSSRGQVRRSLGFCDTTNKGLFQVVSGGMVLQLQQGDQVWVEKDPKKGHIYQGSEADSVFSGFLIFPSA
T3 sequence (P02746 28-253 limits assumed, chain 2 of 3): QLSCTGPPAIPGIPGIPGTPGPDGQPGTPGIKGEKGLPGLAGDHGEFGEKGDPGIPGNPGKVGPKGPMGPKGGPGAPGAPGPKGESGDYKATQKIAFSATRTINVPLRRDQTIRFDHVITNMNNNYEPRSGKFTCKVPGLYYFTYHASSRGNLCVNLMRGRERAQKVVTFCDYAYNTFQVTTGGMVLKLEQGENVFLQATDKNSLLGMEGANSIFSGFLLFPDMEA
T3 sequence (P02747 29-245 limits assumed, chain 3 of 3): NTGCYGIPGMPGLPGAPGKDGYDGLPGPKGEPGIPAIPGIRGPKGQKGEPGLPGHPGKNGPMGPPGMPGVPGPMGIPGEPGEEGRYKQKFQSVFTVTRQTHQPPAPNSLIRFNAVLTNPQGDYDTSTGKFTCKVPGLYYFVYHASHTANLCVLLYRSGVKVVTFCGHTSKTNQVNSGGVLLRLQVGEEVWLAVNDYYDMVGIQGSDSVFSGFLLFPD
Briefly: SPR, C1q bound per antibody captured on Protein L. The method, boiled down: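 Antibodies captured on Protein L immobilized on a CM4 chip were exposed to human C1q diluted in HBS-EP+ running buffer at 25° C. C1q binding was normalized as C1q bound divided by antibody captured. The surface was regenerated with 10 mM glycine-HCl, pH 1.5.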

B1: IL6R-P763/IL6R-L (antibody, human IgG1, kappa)
heavy: QVQLQESGPGLVKPSETLSLTCAVSGHSISHDHAWSWVRQPPGEGLEWIGFISYSGITNYNPSLQGRVTISRDNSKNTLYLQMNSLRAEDTAVYYCARSLARTTAMDYWGEGTLVTVSSASTKGPSVFPLAPSSKSTSGGTAALGCLVKDYFPEPVTVSWNSGALTSGVHTFPAVLQSSGLYSLSSVVTVPSSSLGTQTYICNVNHKPSNTKVDKKVEPKSCDKTHTCPPCPAPELLGGDSVFLFPPKPKDTLMISRTPEVTCVVVDVAEEDGEVKFNWYVDGVEVHNAKTKPREEQYNSTYRVVSVLTVLHQDWLNGKEYKCKVSNKALPAPIEKTISKAKGQPREPQVYTLPPSRDELTKNQVSLTCLVKGFYPSDIAVEWESNGQPENNYKTTPPVLDSDGSFFLYSKLTVDKSRWQQGNVFSCSVMHEALHNHYTQKSLSLSP
light: not shown
For B1, in the assay with FcgRIIaR, the “Relative FcgRIIaR-binding Activity” value is 101 IL6R-G1d/IL6R-L=100. The “Relative FcgRIIb-binding Activity” value in the assay with FcgRIIb turned out to be 332 IL6R-G1d/IL6R-L=100. For the same molecule, the “Amount of C1q-binding when that for G1d is Defined as 100” value (“Amount of C1q-binding when that” for short) with human complement C1q stood at 41.7 G1d=100.

B2: IL6R-P766/IL6R-L (antibody, human IgG1, kappa)
heavy: QVQLQESGPGLVKPSETLSLTCAVSGHSISHDHAWSWVRQPPGEGLEWIGFISYSGITNYNPSLQGRVTISRDNSKNTLYLQMNSLRAEDTAVYYCARSLARTTAMDYWGEGTLVTVSSASTKGPSVFPLAPSSKSTSGGTAALGCLVKDYFPEPVTVSWNSGALTSGVHTFPAVLQSSGLYSLSSVVTVPSSSLGTQTYICNVNHKPSNTKVDKKVEPKSCDKTHTCPPCPAPELLGGDSVFLFPPKPKDTLMISRTPEVTCVVVDVAEEDGEVKFNWYVDGVEVHNAKTKPREEQYNSTYRVVSVLTVLHQDWLNGKEYKCKVSNKGLPSSIEKTISKAKGQPREPQVYTLPPSRDELTKNQVSLTCLVKGFYPSDIAVEWESNGQPENNYKTTPPVLDSDGSFFLYSKLTVDKSRWQQGNVFSCSVMHEALHNHYTQKSLSLSP
light: not shown
As for B2, the “Relative FcgRIIaR-binding Activity” value with FcgRIIaR is 88.1 IL6R-G1d/IL6R-L=100. In the assay with FcgRIIb, the “Relative FcgRIIb-binding Activity” value came out at 286 IL6R-G1d/IL6R-L=100. Further, the “Amount of C1q-binding when that” value with human complement C1q was determined as 21.8 G1d=100.

B3: IL6R-P770/IL6R-L (antibody, human IgG1, kappa)
heavy: QVQLQESGPGLVKPSETLSLTCAVSGHSISHDHAWSWVRQPPGEGLEWIGFISYSGITNYNPSLQGRVTISRDNSKNTLYLQMNSLRAEDTAVYYCARSLARTTAMDYWGEGTLVTVSSASTKGPSVFPLAPSSKSTSGGTAALGCLVKDYFPEPVTVSWNSGALTSGVHTFPAVLQSSGLYSLSSVVTVPSSSLGTQTYICNVNHKPSNTKVDKKVEPKSCDKTHTCPPCPAPELLGGDSVFLFPPKPKDTLMISRTPEVTCVVIDVSHEDGEVKFNWYVDGVEVHNAKTKPREEQYNSTYRVVSVLTVLHQDWLNGKEYKCKVSNKGLPSSIEKTISKAKGQPREPQVYTLPPSRDELTKNQVSLTCLVKGFYPSDIAVEWESNGQPENNYKTTPPVLDSDGSFFLYSKLTVDKSRWQQGNVFSCSVMHEALHNHYTQKSLSLSP
light: not shown
With B3, the “Relative FcgRIIaR-binding Activity” value in the assay with FcgRIIaR came to 78.2 IL6R-G1d/IL6R-L=100. Besides, in the assay with FcgRIIb, the “Relative FcgRIIb-binding Activity” value was determined as 188 IL6R-G1d/IL6R-L=100. For the same molecule, in the assay with human complement C1q, the “Amount of C1q-binding when that” value was found to be 1.5 G1d=100.

B4: IL6R-P764/IL6R-L (antibody, human IgG1, kappa)
heavy: QVQLQESGPGLVKPSETLSLTCAVSGHSISHDHAWSWVRQPPGEGLEWIGFISYSGITNYNPSLQGRVTISRDNSKNTLYLQMNSLRAEDTAVYYCARSLARTTAMDYWGEGTLVTVSSASTKGPSVFPLAPSSKSTSGGTAALGCLVKDYFPEPVTVSWNSGALTSGVHTFPAVLQSSGLYSLSSVVTVPSSSLGTQTYICNVNHKPSNTKVDKKVEPKSCDKTHTCPPCPAPELLGGDSVFLFPPKPKDTLMISRTPEVTCVVIDVSEEDGEVKFNWYVDGVEVHNAKTKPREEQYNSTYRVVSVLTVLHQDWLNGKEYKCKVSNKALPAPIEKTISKAKGQPREPQVYTLPPSRDELTKNQVSLTCLVKGFYPSDIAVEWESNGQPENNYKTTPPVLDSDGSFFLYSKLTVDKSRWQQGNVFSCSVMHEALHNHYTQKSLSLSP
light: not shown
In the case of B4, in the assay with FcgRIIaR, the “Relative FcgRIIaR-binding Activity” value was 89.5 IL6R-G1d/IL6R-L=100. For the same molecule, the “Relative FcgRIIb-binding Activity” value with FcgRIIb stood at 329 IL6R-G1d/IL6R-L=100. In addition, the “Amount of C1q-binding when that” value in the assay with human complement C1q is 23.1 G1d=100.

B5: IL6R-P769/IL6R-L (antibody, human IgG1, kappa)
heavy: QVQLQESGPGLVKPSETLSLTCAVSGHSISHDHAWSWVRQPPGEGLEWIGFISYSGITNYNPSLQGRVTISRDNSKNTLYLQMNSLRAEDTAVYYCARSLARTTAMDYWGEGTLVTVSSASTKGPSVFPLAPSSKSTSGGTAALGCLVKDYFPEPVTVSWNSGALTSGVHTFPAVLQSSGLYSLSSVVTVPSSSLGTQTYICNVNHKPSNTKVDKKVEPKSCDKTHTCPPCPAPELLGGDSVFLFPPKPKDTLMISRTPEVTCVVIDVSHEDGEVKFNWYVDGVEVHNAKTKPREEQYNSTYRVVSVLTVLHQDWLNGKEYKCKVSNKALPAPIEKTISKAKGQPREPQVYTLPPSRDELTKNQVSLTCLVKGFYPSDIAVEWESNGQPENNYKTTPPVLDSDGSFFLYSKLTVDKSRWQQGNVFSCSVMHEALHNHYTQKSLSLSP
light: not shown
For B5, the “Relative FcgRIIaR-binding Activity” value with FcgRIIaR is 86.7 IL6R-G1d/IL6R-L=100. Also, in the assay with FcgRIIb, the “Relative FcgRIIb-binding Activity” value was 196 IL6R-G1d/IL6R-L=100. The “Amount of C1q-binding when that” value with human complement C1q was 31.3 G1d=100.

B6: IL6R-P768/IL6R-L (antibody, human IgG1, kappa)
heavy: QVQLQESGPGLVKPSETLSLTCAVSGHSISHDHAWSWVRQPPGEGLEWIGFISYSGITNYNPSLQGRVTISRDNSKNTLYLQMNSLRAEDTAVYYCARSLARTTAMDYWGEGTLVTVSSASTKGPSVFPLAPSSKSTSGGTAALGCLVKDYFPEPVTVSWNSGALTSGVHTFPAVLQSSGLYSLSSVVTVPSSSLGTQTYICNVNHKPSNTKVDKKVEPKSCDKTHTCPPCPAPELLGGDSVFLFPPKPKDTLMISRTPEVTCVVIDVAHEDGEVKFNWYVDGVEVHNAKTKPREEQYNSTYRVVSVLTVLHQDWLNGKEYKCKVSNKGLPSSIEKTISKAKGQPREPQVYTLPPSRDELTKNQVSLTCLVKGFYPSDIAVEWESNGQPENNYKTTPPVLDSDGSFFLYSKLTVDKSRWQQGNVFSCSVMHEALHNHYTQKSLSLSP
light: not shown
Regarding B6, the “Relative FcgRIIaR-binding Activity” value with FcgRIIaR was found to be 80.9 IL6R-G1d/IL6R-L=100. Besides, the “Relative FcgRIIb-binding Activity” value with FcgRIIb worked out at 305 IL6R-G1d/IL6R-L=100. Further, the “Amount of C1q-binding when that” value with human complement C1q came out at 14 G1d=100.

B7: IL6R-P767/IL6R-L (antibody, human IgG1, kappa)
heavy: QVQLQESGPGLVKPSETLSLTCAVSGHSISHDHAWSWVRQPPGEGLEWIGFISYSGITNYNPSLQGRVTISRDNSKNTLYLQMNSLRAEDTAVYYCARSLARTTAMDYWGEGTLVTVSSASTKGPSVFPLAPSSKSTSGGTAALGCLVKDYFPEPVTVSWNSGALTSGVHTFPAVLQSSGLYSLSSVVTVPSSSLGTQTYICNVNHKPSNTKVDKKVEPKSCDKTHTCPPCPAPELLGGDSVFLFPPKPKDTLMISRTPEVTCVVIDVSEEDGEVKFNWYVDGVEVHNAKTKPREEQYNSTYRVVSVLTVLHQDWLNGKEYKCKVSNKGLPSSIEKTISKAKGQPREPQVYTLPPSRDELTKNQVSLTCLVKGFYPSDIAVEWESNGQPENNYKTTPPVLDSDGSFFLYSKLTVDKSRWQQGNVFSCSVMHEALHNHYTQKSLSLSP
light: not shown
Turning to B7, the “Relative FcgRIIaR-binding Activity” value with FcgRIIaR was 84.2 IL6R-G1d/IL6R-L=100. The “Relative FcgRIIb-binding Activity” value in the assay with FcgRIIb is 318 IL6R-G1d/IL6R-L=100. Moreover, the “Amount of C1q-binding when that” value in the assay with human complement C1q turned out to be 1.7 G1d=100.

B8: IL6R-P765/IL6R-L (antibody, human IgG1, kappa)
heavy: QVQLQESGPGLVKPSETLSLTCAVSGHSISHDHAWSWVRQPPGEGLEWIGFISYSGITNYNPSLQGRVTISRDNSKNTLYLQMNSLRAEDTAVYYCARSLARTTAMDYWGEGTLVTVSSASTKGPSVFPLAPSSKSTSGGTAALGCLVKDYFPEPVTVSWNSGALTSGVHTFPAVLQSSGLYSLSSVVTVPSSSLGTQTYICNVNHKPSNTKVDKKVEPKSCDKTHTCPPCPAPELLGGDSVFLFPPKPKDTLMISRTPEVTCVVIDVAHEDGEVKFNWYVDGVEVHNAKTKPREEQYNSTYRVVSVLTVLHQDWLNGKEYKCKVSNKALPAPIEKTISKAKGQPREPQVYTLPPSRDELTKNQVSLTCLVKGFYPSDIAVEWESNGQPENNYKTTPPVLDSDGSFFLYSKLTVDKSRWQQGNVFSCSVMHEALHNHYTQKSLSLSP
light: not shown
For B8, the “Relative FcgRIIaR-binding Activity” value with FcgRIIaR turned out to be 93.2 IL6R-G1d/IL6R-L=100. The “Relative FcgRIIb-binding Activity” value with FcgRIIb came out at 340 IL6R-G1d/IL6R-L=100. Moreover, the “Amount of C1q-binding when that” value with human complement C1q is 46.6 G1d=100.

B9: IL6R-P771/IL6R-L (antibody, human IgG1, kappa)
heavy: QVQLQESGPGLVKPSETLSLTCAVSGHSISHDHAWSWVRQPPGEGLEWIGFISYSGITNYNPSLQGRVTISRDNSKNTLYLQMNSLRAEDTAVYYCARSLARTTAMDYWGEGTLVTVSSASTKGPSVFPLAPSSKSTSGGTAALGCLVKDYFPEPVTVSWNSGALTSGVHTFPAVLQSSGLYSLSSVVTVPSSSLGTQTYICNVNHKPSNTKVDKKVEPKSCDKTHTCPPCPAPELLGGDSVFLFPPKPKDTLMISRTPEVTCVVIDVSHEDGEVKFNWYVDGVEVHNAKTKPREEQYNSTYRVVSVLTVLHQDWLNGKEYKCAVSNKALPAPIEKTISKAKGQPREPQVYTLPPSRDELTKNQVSLTCLVKGFYPSDIAVEWESNGQPENNYKTTPPVLDSDGSFFLYSKLTVDKSRWQQGNVFSCSVMHEALHNHYTQKSLSLSP
light: not shown
Consider B9, for which, in the assay with FcgRIIaR, the “Relative FcgRIIaR-binding Activity” value amounted to 75.8 IL6R-G1d/IL6R-L=100. Further, the “Relative FcgRIIb-binding Activity” value with FcgRIIb is 195 IL6R-G1d/IL6R-L=100. In addition, the “Amount of C1q-binding when that” value in the assay with human complement C1q came out at 14.3 G1d=100.
